# Test results: patent publication US20200325239A1, “Modulation of Aminopeptidase N/CD13 and Rheumatoid Arthritis” (THE REGENTS OF THE UNIVERSITY OF MICHIGAN, priority 2016, published 2020)
# Assays:
# C57Bl/6 mice [1] = assay: Mouse model of inflammatory arthritis, intra-articular injection into knee joints; type: in vivo; details: 500 ng in 20 μl of PBS, 24 and 48 hours
# Procedure: To use the mouse model of inflammatory arthritis, female C57Bl/6 mice (8-10 weeks old, Harlan Laboratories) are anesthetized with ketamine (80-120 mg/kg body weight) and xylazine (5-10 mg/kg body weight) intraperitoneally, and the knee circumference is determined by caliper measurements before intra-articular injection, as described (67). The anesthetized mice receive 20 μl/knee joint of PBS and recombinant mouse CD13 (500 ng in 20 μl of PBS). Circumference measurements are obtained in a blinded manner. Mice are euthanized after 24 and 48 hours of the intraarticular injection. Mouse knees are measured before euthanasia. Hematoxylin and eosin (H&E) staining of the mouse knee cryosections is performed to determine the inflammatory response of CD13 (67). Immunofluorescence staining is also performed on cryosections using rat anti-mouse F4/80 antibody (GenTex) to detect MNs/macrophages. The number of F4/80-positive MNs/macrophages is calculated as the average number of cells in 3 fields (400X).
# [2] = tested on: Human dermal microvascular endothelial cell (HMVEC); assay: HMVEC tube formation on growth factor-reduced Matrigel; type: cell-based; details: GFR Matrigel
# Procedure: FIG. 11. Human dermal microvascular endothelial cell (HMVEC) tube formation was assessed on growth factor-reduced Matrigel (GFR, BD Biosciences) with CD13. […] Arrows indicate the number of tubes formed in each group. n=number of replicates in each group. The number of tubes formed was quantitated by an observer blinded to the experimental groups.
# HMVEC Matrigel tube formation assay. After finding that CD13 is chemotactic for HMVECs, the role of CD13 in RA is examined by performing HMVEC capillary morphogenesis assay on Matrigel tube with sham- or CD13-depleted RA SFs. Growth factor-reduced Matrigel (GFR, BD Biosciences) is used to perform this assay (56-58). CD13- or sham-depleted RA SFs are used as test groups (58). The chambers are incubated for 16 to 18 hours at 37° C. in a 5% CO2 humidified atmosphere. Cells are fixed and stained with Diff-Quik. The number of tubes formed is quantitated by an observer blinded to the experimental groups. bFGF (30 nM) and phosphate buffered saline (PBS) serve as positive and negative controls, respectively.
# normal human MN = assay: Normal human MN chemotaxis in modified Boyden chambers; type: cell-based; details: PBS negative control
# Procedure: FIG. 14. To evaluate the contribution of CD13 to RA inflammation by recruiting MNs, normal human MN chemotaxis assays were performed in modified Boyden chambers. […] PBS served as negative control. n=number of experiments. The results are expressed as mean+SEM and *p<0.05 was considered significant. n=number of replicates.
# C57Bl/6 mice [3] = assay: Matrigel plug angiogenesis assay in vivo (hemoglobin); set-up: species or system mouse; details: subcutaneous Matrigel 500 μl, plugs harvested after 7 days
# Procedure: FIG. 13. To test the effect of CD13 in angiogenesis in vivo, Matrigel plug assays were performed using C57Bl/6 mice. Each mouse was given a subcutaneous injection of sterile GFR Matrigel (500 μl/injection) containing either CD13 or PBS, a negative control. Matrigel plugs were harvested after 7 days. Hemoglobin (Hb) was determined. […] Results are represented as the mean+SEM and *p<0.05 was considered significant. n=number of mice per group.
# This assay is performed as described previously (56-58). RA SFs sham- or CD13-depleted (50 μl in 500 μl of Matrigel) are injected subcutaneously in C57Bl/6 mice. After 7 days, the mice are euthanized and the Matrigel plugs are removed, weighed, and processed for hemoglobin (Hb) measurement or immunofluorescence. Hemoglobin (Hb) concentration is determined either by the Drabkin method using a Drabkin's reagent kit (Sigma) or with the 3,3,5,5-tetramethylbenzidine substrate system (Sigma) (56, 61, 62). Hb values are normalized to plug weight.
# [4] = tested on: Human dermal microvascular endothelial cell (HMVEC); assay: HMVEC chemotaxis in modified Boyden chamber; type: cell-based; details: p<0.05 vs PBS; dose-dependent
# Procedure: FIG. 10. Human dermal microvascular endothelial cell (HMVEC) chemotaxis was performed in a modified Boyden chamber using CD13 at various concentrations. […] CD13 induced HMVEC migration from 500-2000 ng/ml (p<0.05). Data represent the mean of 3 individual experiments±SEM. Three high-power fields (hpf) (×400) were counted in each replicate well and results were expressed as cells per hpf. PBS served as negative control.
# RA FLS = assay: FLS growth assay (Essen IncuCyte, percent confluence); type: cell-based, human; details: proliferation and migration
# Procedure: FIG. 5. […] FLS were seeded on 96-well plates overnight. An Essen Incucyte system was used for both growth (A) and migration (B) assays. Growth was calculated as the difference in percent confluence from time 0. Migration was measured in a scratch-wound assay using relative wound density. All data are expressed as a ratio to untreated FLS of the same cell line. mean±SEM n≥4 (*p≤0.05).
# RA FLS were seeded on Essen Image Lock 96-well plates (Essen Bioscience, Ann Arbor, Mich.) overnight at either 3,000 cells/well for growth or 30,000 cells/well for migration. For growth, the 20% FBS CMRL media was removed and cells were washed 1× with PBS. 100 μl of medium alone (control) or medium containing anti-CD3 (25 or 50 ng/ml, OKT3, used as a non-reactive isotype control antibody in this experiment), anti-CD13 1D7 or WM15 (Biolegend, San Diego, Calif.) (25 or 50 ng/ml), or CD13 chemical inhibitors actinonin (Sigma-Aldrich, St. Louis, Mo.) or bestatin (Sigma-Aldrich, St. Louis, Mo.) (10 μM and 50 μM, respectively) was added to the wells. Images and confluence data were collected using an Essen IncuCyte (Essen Bioscience, Ann Arbor, Mich.). For the scratch-wound migration assay, wounds were made via the Essen scratch-wound tool in the seeded 96-well plate. Plates were then washed 2× with PBS and medium was added similar to the growth plates. Data were collected and the confluence or relative wound density calculated by the Essen IncuCyte.
molecule,measurement,setting,value
"CD13: recombinant Aminopeptidase N/CD13 used as stimulus; recombinant mouse CD13 planned for knee injection (protein, UniProt P15144 2-967, looked up) Aminopeptidase N: AKGFYISKSLGILGILLGVAAVCTIIALSVVYSQEKNKNANSSPVASTTPSASATTNPASATTLDQSKAWNRYRLPNTLKPDSYRVTLRPYLTPNDRGLYVFKGSSTVRFTCKEATDVIIIHSKKLNYTLSQGHRVVLRGVGGSQPPDIDKTELVEPTEYLVVHLKGSLVKDSQYEMDSEFEGELADDLAGFYRSEYMEGNVRKVVATTQMQAADARKSFPCFDEPAMKAEFNITLIHPKDLTALSNMLPKGPSTPLPEDPNWNVTEFHTTPKMSTYLLAFIVSEFDYVEKQASNGVLIRIWARPSAIAAGHGDYALNVTGPILNFFAGHYDTPYPLPKSDQIGLPDFNAGAMENWGLVTYRENSLLFDPLSSSSSNKERVVTVIAHELAHQWFGNLVTIEWWNDLWLNEGFASYVEYLGADYAEPTWNLKDLMVLNDVYRVMAVDALASSHPLSTPASEINTPAQISELFDAISYSKGASVLRMLSSFLSEDVFKQGLASYLHTFAYQNTIYLNLWDHLQEAVNNRSIQLPTTVRDIMNRWTLQMGFPVITVDTSTGTLSQEHFLLDPDSNVTRPSEFNYVWIVPITSIRDGRQQQDYWLIDVRAQNDLFSTSGNEWVLLNLNVTGYYRVNYDEENWRKIQTQLQRDHSAIPVINRAQIINDAFNLASAHKVPVTLALNNTLFLIEERQYMPWEAALSSLSYFKLMFDRSEVYGPMKNYLKKQVTPLFIHFRNNTNNWREIPENLMDQYSEVNAISTACSNGVPECEEMVSGLFKQWMENPNNNPIHPNLRSTVYCNAIAQGGEEEWDFAWEQFRNATLVNEADKLRAALACSKELWILNRYLSYTLNPDLIRKQDATSTIISITNNVIGQGLVWDFVQSNWKKLFNDYGGGSFSFSNLIQAVTRRFSTEYELQQLEQFKKDNEETGFGSGTRALEQALEKTKANIKWVKENKEVVLQWFTENSK",increase in mouse knee circumference compared to PBS,C57Bl/6 mice [1],2-3 fold
same,EC tubes formed compared to PBS,[2],almost two-fold more numerous
same,MN migration,normal human MN,concentration-dependent increase in MN migration
same,hemoglobin (Hb) in Matrigel plugs compared to PBS,C57Bl/6 mice [3],more than a four-fold increase in Hb
same,concentrations at which HMVEC migration was induced,[4],500 to 2000 ng/mL
same,effect of additional rhCD13 on RA FLS proliferation and migration,RA FLS,did not consistently affect the RA FLS
